Experimental data: US10500249B2, “Compositions and methods for preventing or treating diseases, conditions, or processes characterized by aberrant fibroblast proliferation and extracellular matrix deposition” (MOERAE MATRIX, INC., priority 2014, dated 2019)

Experiments:
Assay in all cases: Kinase Profiling Assay
Type in all cases: biochemical
Settings in all cases: 100 μM
[1] = target: T1, CHK2 (h) (Homo sapiens, UniProt O96017)
T1 construct: purchased Millipore
Summary of the method: (§1)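 Scintillation counting quantifies radiolabeled, positively charged substrate retained on a negatively charged filter after kinase reaction with labeled ATP; inhibitor peptide present.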

[2] = target: T2, DAPK2 (h) (Homo sapiens, UniProt Q9UIK4)
T2 construct: purchased Millipore
Summary of the method: as §1

[3] = target: EphA5 (h) (Homo sapiens, UniProt P54756)
Summary of the method: as §1

[4] = target: T3, EphB3 (h) (Homo sapiens, UniProt P54753)
T3 sequence (P54753 34-998): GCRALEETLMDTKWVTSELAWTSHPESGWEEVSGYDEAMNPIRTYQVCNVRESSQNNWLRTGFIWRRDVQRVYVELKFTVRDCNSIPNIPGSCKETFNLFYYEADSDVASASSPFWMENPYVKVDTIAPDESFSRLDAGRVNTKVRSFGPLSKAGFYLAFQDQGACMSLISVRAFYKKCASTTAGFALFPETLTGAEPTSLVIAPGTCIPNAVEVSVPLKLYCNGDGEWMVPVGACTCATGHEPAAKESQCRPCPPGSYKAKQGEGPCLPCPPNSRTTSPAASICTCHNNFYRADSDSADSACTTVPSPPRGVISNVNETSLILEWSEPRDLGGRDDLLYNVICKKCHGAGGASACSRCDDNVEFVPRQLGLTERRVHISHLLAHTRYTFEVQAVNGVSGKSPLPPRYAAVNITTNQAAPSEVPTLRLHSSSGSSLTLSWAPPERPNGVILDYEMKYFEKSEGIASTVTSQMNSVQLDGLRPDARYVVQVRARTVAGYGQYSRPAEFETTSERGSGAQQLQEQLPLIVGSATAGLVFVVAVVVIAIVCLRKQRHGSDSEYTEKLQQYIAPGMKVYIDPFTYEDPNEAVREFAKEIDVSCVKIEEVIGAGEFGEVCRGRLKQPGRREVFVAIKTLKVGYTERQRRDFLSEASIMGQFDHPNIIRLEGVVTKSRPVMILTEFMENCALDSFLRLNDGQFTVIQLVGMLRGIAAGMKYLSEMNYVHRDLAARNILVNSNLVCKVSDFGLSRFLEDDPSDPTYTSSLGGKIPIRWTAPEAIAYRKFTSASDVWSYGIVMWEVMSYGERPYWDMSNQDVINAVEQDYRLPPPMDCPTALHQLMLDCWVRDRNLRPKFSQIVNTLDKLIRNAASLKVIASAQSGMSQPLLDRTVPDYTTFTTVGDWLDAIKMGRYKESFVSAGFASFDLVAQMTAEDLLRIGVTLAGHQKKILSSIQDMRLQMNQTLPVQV
Summary of the method: as §1

[5] = target: T4, NEK11 (h) (Homo sapiens, UniProt Q8NG66)
T4 construct: purchased Millipore
T4 sequence (Q8NG66 1-645): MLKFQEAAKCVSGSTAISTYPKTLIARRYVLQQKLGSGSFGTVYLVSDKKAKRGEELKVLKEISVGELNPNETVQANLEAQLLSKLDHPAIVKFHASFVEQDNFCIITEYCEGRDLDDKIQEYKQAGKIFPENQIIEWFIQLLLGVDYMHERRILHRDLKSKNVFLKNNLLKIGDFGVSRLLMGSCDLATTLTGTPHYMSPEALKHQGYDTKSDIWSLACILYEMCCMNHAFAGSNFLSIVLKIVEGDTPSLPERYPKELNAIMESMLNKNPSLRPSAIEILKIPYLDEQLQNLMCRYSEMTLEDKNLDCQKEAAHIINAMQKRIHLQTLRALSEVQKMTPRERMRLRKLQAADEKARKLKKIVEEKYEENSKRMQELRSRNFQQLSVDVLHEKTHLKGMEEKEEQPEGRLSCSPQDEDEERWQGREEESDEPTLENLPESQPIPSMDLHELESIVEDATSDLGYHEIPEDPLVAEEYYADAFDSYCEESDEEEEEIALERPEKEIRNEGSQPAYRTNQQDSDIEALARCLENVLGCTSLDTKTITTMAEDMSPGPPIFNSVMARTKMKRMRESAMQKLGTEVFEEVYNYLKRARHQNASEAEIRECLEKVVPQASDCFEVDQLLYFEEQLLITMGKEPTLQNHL
Summary of the method: as §1

[6] = target: Ret (h) (Homo sapiens, UniProt P07949)
Summary of the method: as §1

[7] = target: TrkB (h) (Homo sapiens, UniProt Q16620)
Summary of the method: as §1

EphA5 (h), sequence (P54756 25-1037): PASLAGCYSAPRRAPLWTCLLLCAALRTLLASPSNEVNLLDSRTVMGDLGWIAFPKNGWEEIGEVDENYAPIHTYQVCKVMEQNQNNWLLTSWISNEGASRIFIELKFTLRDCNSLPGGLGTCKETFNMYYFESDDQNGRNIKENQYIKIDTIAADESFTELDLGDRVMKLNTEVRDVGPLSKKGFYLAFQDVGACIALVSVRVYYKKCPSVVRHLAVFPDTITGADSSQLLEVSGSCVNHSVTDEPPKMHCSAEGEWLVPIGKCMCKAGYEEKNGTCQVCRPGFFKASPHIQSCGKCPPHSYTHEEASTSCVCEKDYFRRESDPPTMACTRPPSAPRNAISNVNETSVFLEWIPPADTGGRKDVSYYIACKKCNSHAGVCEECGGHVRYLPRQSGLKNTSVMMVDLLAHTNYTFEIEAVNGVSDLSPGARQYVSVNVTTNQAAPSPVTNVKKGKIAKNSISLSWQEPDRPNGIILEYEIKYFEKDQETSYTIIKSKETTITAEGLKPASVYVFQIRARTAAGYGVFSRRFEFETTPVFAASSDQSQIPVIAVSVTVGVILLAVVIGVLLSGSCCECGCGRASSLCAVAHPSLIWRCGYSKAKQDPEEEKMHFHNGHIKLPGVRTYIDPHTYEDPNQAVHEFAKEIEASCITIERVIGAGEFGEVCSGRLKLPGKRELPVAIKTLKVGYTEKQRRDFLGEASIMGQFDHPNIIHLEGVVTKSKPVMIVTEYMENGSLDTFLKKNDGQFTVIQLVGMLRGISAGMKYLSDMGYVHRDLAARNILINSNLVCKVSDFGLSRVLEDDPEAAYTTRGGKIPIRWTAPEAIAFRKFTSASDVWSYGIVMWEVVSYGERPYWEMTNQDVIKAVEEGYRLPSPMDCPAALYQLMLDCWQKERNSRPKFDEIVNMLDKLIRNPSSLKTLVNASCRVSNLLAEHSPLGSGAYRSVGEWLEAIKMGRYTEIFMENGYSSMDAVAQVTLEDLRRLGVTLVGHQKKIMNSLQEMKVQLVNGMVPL
T1 sequence (O96017 whole entry): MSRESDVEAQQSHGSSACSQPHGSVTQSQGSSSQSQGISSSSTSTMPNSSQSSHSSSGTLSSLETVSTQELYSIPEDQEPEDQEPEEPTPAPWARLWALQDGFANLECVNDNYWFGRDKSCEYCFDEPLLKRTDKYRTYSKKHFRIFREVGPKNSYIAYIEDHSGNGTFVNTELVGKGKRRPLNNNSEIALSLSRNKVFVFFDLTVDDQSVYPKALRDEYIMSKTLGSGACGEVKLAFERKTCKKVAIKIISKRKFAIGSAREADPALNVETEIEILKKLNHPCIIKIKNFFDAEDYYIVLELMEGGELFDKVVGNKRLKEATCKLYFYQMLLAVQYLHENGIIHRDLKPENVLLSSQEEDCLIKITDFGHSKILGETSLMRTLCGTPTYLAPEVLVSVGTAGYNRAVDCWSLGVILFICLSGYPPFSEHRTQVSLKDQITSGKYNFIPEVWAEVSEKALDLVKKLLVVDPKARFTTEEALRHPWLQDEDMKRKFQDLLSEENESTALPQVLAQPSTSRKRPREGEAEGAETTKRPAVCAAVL
T2 sequence (Q9UIK4 whole entry): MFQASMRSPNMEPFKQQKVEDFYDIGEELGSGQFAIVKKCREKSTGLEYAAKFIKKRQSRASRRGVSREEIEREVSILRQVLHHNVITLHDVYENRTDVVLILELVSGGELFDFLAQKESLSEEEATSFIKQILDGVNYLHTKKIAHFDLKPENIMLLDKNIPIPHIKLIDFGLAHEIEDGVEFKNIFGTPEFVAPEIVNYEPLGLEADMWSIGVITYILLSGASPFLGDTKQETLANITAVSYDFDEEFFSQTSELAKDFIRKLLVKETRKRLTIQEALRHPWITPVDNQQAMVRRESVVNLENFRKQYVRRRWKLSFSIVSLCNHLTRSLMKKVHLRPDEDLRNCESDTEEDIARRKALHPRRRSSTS

Row | Sequence | % activity [1] | % activity [2] | % activity [3] | % activity [4] | % activity [5] | % activity [6] | % activity [7]
1 | FAKLAARLYRKALARQLGVAA [MMI-0300] | 66% | 32% | 18% | 62% | 53% | 140% | 5%
2 | KAFAKLAARLYRKALARQLGVAA [MMI-0400] | 54% | 16% | 24% | 47% | 33% | 145% | 8%
3 | YARAAARQARAKALNRQLGVA (Mammalian) [MMI-0200] |  | 92% | 123% | 128% | 95% | 96% | 7%
4 | HRRIKAWLKKIKALARQLGVAA (Mammalian) [MMI-0500] | 13% | 3% | 42% | 79% | 2% | 174% | 12%
